Source: publication PMC10397247
Where two headings read alike, the source gives them in different places.

How the values were obtained:
4H40-bH = molecular target: T1, 4H40-bH; assay: two-hybrid library CCNG1;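 note: natural log of median RNA to DNA barcode read ratio; higher means stronger binding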
T1 chain: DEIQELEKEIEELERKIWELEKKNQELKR

4H477-bH = molecular target: T2, 4H477-bH; assay: two-hybrid library CCNG1;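 note: natural log of median RNA to DNA barcode read ratio; higher means stronger binding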
T2 chain: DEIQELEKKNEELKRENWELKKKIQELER

4H492-bH = molecular target: T3, 4H492-bH; assay: two-hybrid library CCNG1;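 note: natural log of median RNA to DNA barcode read ratio; higher means stronger binding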
T3 chain: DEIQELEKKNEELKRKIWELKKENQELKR

4H741-bH = molecular target: T4, 4H741-bH; assay: two-hybrid library CCNG1;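 note: natural log of median RNA to DNA barcode read ratio; higher means stronger binding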
T4 chain: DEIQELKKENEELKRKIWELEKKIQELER

4H2505-AA = molecular target: T5, 4H2505-AA; assay: two-hybrid library CCmax;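 note: natural log of median RNA to DNA barcode read ratio; higher means stronger binding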
T5 chain: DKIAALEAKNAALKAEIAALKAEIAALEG

4H2575-AA = molecular target: T6, 4H2575-AA; assay: two-hybrid library CCmax; conditions: mean of both orientations;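 note: natural log of median RNA to DNA barcode read ratio; higher means stronger binding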
T6 chain: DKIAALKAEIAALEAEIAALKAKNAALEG

4H2617-AA = molecular target: T7, 4H2617-AA; assay: two-hybrid library CCmax; conditions: mean of both orientations
T7 chain: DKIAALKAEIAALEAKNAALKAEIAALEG

4H2642-AA = molecular target: T8, 4H2642-AA; assay: two-hybrid library CCmax; conditions: mean of both orientations
T8 chain: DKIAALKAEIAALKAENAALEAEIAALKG

4H2729-AA = molecular target: T9, 4H2729-AA; assay: two-hybrid library CCmax; conditions: mean of both orientations
T9 chain: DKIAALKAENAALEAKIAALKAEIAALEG

4H2754-AA = molecular target: T10, 4H2754-AA; assay: two-hybrid library CCmax; conditions: mean of both orientations
T10 chain: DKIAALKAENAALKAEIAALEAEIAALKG

4H2837-AA = molecular target: T11, 4H2837-AA; assay: two-hybrid library CCmax; conditions: mean of both orientations
T11 chain: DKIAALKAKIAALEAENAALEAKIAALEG

4H2883-AA = molecular target: T12, 4H2883-AA; assay: two-hybrid library CCmax; conditions: mean of both orientations
T12 chain: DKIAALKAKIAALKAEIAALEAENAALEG

4H2944-AA = molecular target: T13, 4H2944-AA; assay: two-hybrid library CCmax; conditions: mean of both orientations
T13 chain: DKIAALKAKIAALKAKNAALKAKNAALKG

4H2949-AA = molecular target: T14, 4H2949-AA; assay: two-hybrid library CCmax; conditions: mean of both orientations
T14 chain: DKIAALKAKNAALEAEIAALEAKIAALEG

4H3112-AA = molecular target: T15, 4H3112-AA; assay: two-hybrid library CCmax; conditions: mean of both orientations
T15 chain: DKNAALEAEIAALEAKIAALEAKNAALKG

4H317-AA = molecular target: T16, 4H317-AA; assay: two-hybrid library CCmax; conditions: mean of both orientations
T16 chain: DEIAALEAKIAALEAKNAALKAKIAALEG

4H3343-AA = molecular target: T17, 4H3343-AA; assay: two-hybrid library CCmax; conditions: mean of both orientations
T17 chain: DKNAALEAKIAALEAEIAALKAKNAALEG

4H335-AA = molecular target: T18, 4H335-AA; assay: two-hybrid library CCmax; conditions: mean of both orientations
T18 chain: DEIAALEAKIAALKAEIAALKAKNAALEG

4H342-AA = molecular target: T19, 4H342-AA; assay: two-hybrid library CCmax; conditions: mean of both orientations
T19 chain: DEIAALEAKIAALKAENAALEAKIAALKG

4H3427-AA = molecular target: T20, 4H3427-AA; assay: two-hybrid library CCmax; conditions: mean of both orientations
T20 chain: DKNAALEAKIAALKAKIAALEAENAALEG

4H3606-AA = molecular target: T21, 4H3606-AA; assay: two-hybrid library CCmax; conditions: mean of both orientations
T21 chain: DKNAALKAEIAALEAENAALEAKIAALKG

4H3627-AA = molecular target: T22, 4H3627-AA; assay: two-hybrid library CCmax
T22 chain: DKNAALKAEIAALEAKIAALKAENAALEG

4H3655-AA = molecular target: T23, 4H3655-AA; assay: two-hybrid library CCmax; conditions: mean of both orientations
T23 chain: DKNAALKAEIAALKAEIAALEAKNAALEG

4H3844-AA = molecular target: T24, 4H3844-AA; assay: two-hybrid library CCmax; conditions: mean of both orientations
T24 chain: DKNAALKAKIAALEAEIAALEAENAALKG

4H3921-AA = molecular target: T25, 4H3921-AA; assay: two-hybrid library CCmax; conditions: mean of both orientations
T25 chain: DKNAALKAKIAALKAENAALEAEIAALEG

4H429-AA = molecular target: T26, 4H429-AA; assay: two-hybrid library CCmax
T26 chain: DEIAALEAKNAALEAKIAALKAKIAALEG

4H454-AA = molecular target: T27, 4H454-AA; assay: two-hybrid library CCmax; conditions: mean of both orientations
T27 chain: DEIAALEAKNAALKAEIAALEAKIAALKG

4H48-AA = molecular target: T28, 4H48-AA; assay: two-hybrid library CCmax; conditions: mean of both orientations
T28 chain: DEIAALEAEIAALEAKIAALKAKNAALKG

4H566-AA = molecular target: T29, 4H566-AA; assay: two-hybrid library CCmax; conditions: mean of both orientations
T29 chain: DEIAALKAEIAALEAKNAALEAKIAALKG

4H605-AA = molecular target: T30, 4H605-AA; assay: two-hybrid library CCmax; conditions: mean of both orientations
T30 chain: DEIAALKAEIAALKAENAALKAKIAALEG

4H678-AA = molecular target: T31, 4H678-AA; assay: two-hybrid library CCmax; conditions: mean of both orientations
T31 chain: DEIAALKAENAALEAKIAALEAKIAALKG

4H717-AA = molecular target: T32, 4H717-AA; assay: two-hybrid library CCmax; conditions: mean of both orientations
T32 chain: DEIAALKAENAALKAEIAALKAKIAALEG

4H780-AA = molecular target: T33, 4H780-AA; assay: two-hybrid library CCmax; conditions: mean of both orientations
T33 chain: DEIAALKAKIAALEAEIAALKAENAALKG

4H794-AA = molecular target: T34, 4H794-AA; assay: two-hybrid library CCmax; conditions: mean of both orientations
T34 chain: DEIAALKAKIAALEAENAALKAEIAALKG

4H881-AA = molecular target: T35, 4H881-AA; assay: two-hybrid library CCmax; conditions: mean of both orientations
T35 chain: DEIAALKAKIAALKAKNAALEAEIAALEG

4H906-AA = molecular target: T36, 4H906-AA; assay: two-hybrid library CCmax; conditions: mean of both orientations
T36 chain: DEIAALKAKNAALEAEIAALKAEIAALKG

4H993-AA = molecular target: T37, 4H993-AA; assay: two-hybrid library CCmax; conditions: mean of both orientations
T37 chain: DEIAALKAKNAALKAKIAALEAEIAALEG

4H56-bH = molecular target: T38, 4H56-bH; assay: two-hybrid library CCNG1
T38 chain: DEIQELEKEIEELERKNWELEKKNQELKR

4H730-bH = molecular target: T39, 4H730-bH; assay: two-hybrid library CCNG1
T39 chain: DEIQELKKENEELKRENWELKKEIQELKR

4H796-bH = molecular target: T40, 4H796-bH; assay: two-hybrid library CCNG1
T40 chain: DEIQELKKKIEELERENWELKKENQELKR

4H932-bH = molecular target: T41, 4H932-bH; assay: two-hybrid library CCNG1
T41 chain: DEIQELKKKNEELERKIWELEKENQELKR

4H949-bH = molecular target: T42, 4H949-bH; assay: two-hybrid library CCNG1
T42 chain: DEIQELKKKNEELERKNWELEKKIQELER

4H2466-AA = molecular target: T43, 4H2466-AA; assay: two-hybrid library CCmax; conditions: mean of both orientations
T43 chain: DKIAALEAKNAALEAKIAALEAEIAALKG

4H462-bN = molecular target: T44, 4H462-bN; assay: two-hybrid library CCNG1
T44 chain: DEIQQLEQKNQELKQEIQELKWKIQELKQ

4H568-bN = molecular target: T45, 4H568-bN; assay: two-hybrid library CCNG1
T45 chain: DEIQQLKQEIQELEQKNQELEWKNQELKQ

4H607-bN = molecular target: T46, 4H607-bN; assay: two-hybrid library CCNG1
T46 chain: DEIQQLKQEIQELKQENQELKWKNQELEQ

4H687-bN = molecular target: T47, 4H687-bN; assay: two-hybrid library CCNG1
T47 chain: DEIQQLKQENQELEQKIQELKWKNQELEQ

4H72-bN = molecular target: T48, 4H72-bN; assay: two-hybrid library CCNG1
T48 chain: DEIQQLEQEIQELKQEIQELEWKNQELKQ

4H797-bN = molecular target: T49, 4H797-bN; assay: two-hybrid library CCNG1
T49 chain: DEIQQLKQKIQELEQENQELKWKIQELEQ

4H883-bN = molecular target: T50, 4H883-bN; assay: two-hybrid library CCNG1
T50 chain: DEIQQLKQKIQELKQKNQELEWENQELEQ

4H918-bN = molecular target: T51, 4H918-bN; assay: two-hybrid library CCNG1
T51 chain: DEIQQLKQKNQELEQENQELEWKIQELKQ

4H953-bN = molecular target: T52, 4H953-bN; assay: two-hybrid library CCNG1
T52 chain: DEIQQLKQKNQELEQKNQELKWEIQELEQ

4H967-bN = molecular target: T53, 4H967-bN; assay: two-hybrid library CCNG1
T53 chain: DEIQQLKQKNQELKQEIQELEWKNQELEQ

DEIQELEKEIEELERKIWELEKKNQELKR [4H40-bH]
interaction score (4H40-bH): -0.0343
interaction score (4H477-bH): -0.00296
interaction score (4H492-bH): 0.0489
interaction score (4H741-bH): 0.646

DKIAALEAKNAALKAEIAALKAEIAALEG [4H2505-AA]
interaction score (4H2505-AA): 1.09
interaction score (4H2575-AA): -0.277
interaction score (4H2617-AA): -0.92
interaction score (4H2642-AA): -0.234
interaction score (4H2729-AA): 2.02
interaction score (4H2754-AA): 1.69
interaction score (4H2837-AA): 1.03
interaction score (4H2883-AA): -0.918
interaction score (4H2944-AA): -1.9
interaction score (4H2949-AA): 1.68
interaction score (4H3112-AA): -1.11
interaction score (4H317-AA): -1.65
interaction score (4H3343-AA): -1.59
interaction score (4H335-AA): -1.01
interaction score (4H342-AA): 1.06
interaction score (4H3427-AA): -1.04
interaction score (4H3606-AA): 1.04
interaction score (4H3627-AA): -1.54
interaction score (4H3655-AA): -1.61
interaction score (4H3844-AA): -1.01
interaction score (4H3921-AA): -0.328
interaction score (4H429-AA): 1.6
interaction score (4H454-AA): 2.21
interaction score (4H48-AA): 0.908
interaction score (4H566-AA): -0.341
interaction score (4H605-AA): -1.14
interaction score (4H678-AA): 1.78
interaction score (4H717-AA): -0.029
interaction score (4H780-AA): -1.6
interaction score (4H794-AA): -0.881
interaction score (4H881-AA): -1.43
interaction score (4H906-AA): 0.636
interaction score (4H993-AA): -1.53

DEIQELEKEIEELERKNWELEKKNQELKR [4H56-bH]
interaction score (4H56-bH): -0.661
interaction score (4H730-bH): -0.307
interaction score (4H796-bH): 0.682
interaction score (4H932-bH): -0.0294
interaction score (4H949-bH): -1.15

DKIAALEAKIAALKAENAALKAEIAALEG [4H2393-AA]
interaction score (4H2466-AA): 0.221
interaction score (4H2505-AA; mean of both orientations): -1.59
interaction score (4H2575-AA): -1.03
interaction score (4H2617-AA): 1.93
interaction score (4H2642-AA): 1.82
interaction score (4H2729-AA): -0.695
interaction score (4H2754-AA): -1.23
interaction score (4H2837-AA): 1.73
interaction score (4H2883-AA): -1.21
interaction score (4H2944-AA): -0.902
interaction score (4H2949-AA): 1.51
interaction score (4H3112-AA): -1.21
interaction score (4H317-AA): 1.92
interaction score (4H3343-AA): -1.29
interaction score (4H335-AA): -1.56
interaction score (4H342-AA): 2.37
interaction score (4H3427-AA): -1.45
interaction score (4H3606-AA): 2.32
interaction score (4H3627-AA; mean of both orientations): -1.42
interaction score (4H3655-AA): -1.41
interaction score (4H3844-AA): 1.55
interaction score (4H3921-AA): -1.77
interaction score (4H429-AA; mean of both orientations): -1.55
interaction score (4H454-AA): -0.951
interaction score (4H48-AA): -0.193
interaction score (4H566-AA): 1.33
interaction score (4H605-AA): 0.852
interaction score (4H678-AA): -0.574
interaction score (4H717-AA): -1.55
interaction score (4H780-AA): -1.42
interaction score (4H794-AA): 1.33
interaction score (4H881-AA): -1
interaction score (4H906-AA): -1.04
interaction score (4H993-AA): -1.5

DEIQQLEQKNQELKQEIQELKWKIQELKQ [4H462-bN]
interaction score (4H462-bN): -0.578
interaction score (4H568-bN): 0.685
interaction score (4H607-bN): 0.42
interaction score (4H687-bN): -0.147
interaction score (4H72-bN): -0.825
interaction score (4H797-bN): -0.297
interaction score (4H883-bN): -1.4
interaction score (4H918-bN): -1.19
interaction score (4H953-bN): -0.25
interaction score (4H967-bN): -0.954
